Biological target: GST-SPAK 63–390 (mouse, UniProt Q9Z1W9 63-390)
Test: pull-down

- binding result: binds
B1: His6-SPAK 63–390 (domain or fragment)
chain: not shown

— paper PMC5167558 (Biochemistry, 2015)
